Values quoted from earlier work in PMC8892085.
pKd: −log10 of the molar value.

Molecular target: TLR4 (Homo sapiens) (UniProt O00206)
Sequence (O00206 24-839): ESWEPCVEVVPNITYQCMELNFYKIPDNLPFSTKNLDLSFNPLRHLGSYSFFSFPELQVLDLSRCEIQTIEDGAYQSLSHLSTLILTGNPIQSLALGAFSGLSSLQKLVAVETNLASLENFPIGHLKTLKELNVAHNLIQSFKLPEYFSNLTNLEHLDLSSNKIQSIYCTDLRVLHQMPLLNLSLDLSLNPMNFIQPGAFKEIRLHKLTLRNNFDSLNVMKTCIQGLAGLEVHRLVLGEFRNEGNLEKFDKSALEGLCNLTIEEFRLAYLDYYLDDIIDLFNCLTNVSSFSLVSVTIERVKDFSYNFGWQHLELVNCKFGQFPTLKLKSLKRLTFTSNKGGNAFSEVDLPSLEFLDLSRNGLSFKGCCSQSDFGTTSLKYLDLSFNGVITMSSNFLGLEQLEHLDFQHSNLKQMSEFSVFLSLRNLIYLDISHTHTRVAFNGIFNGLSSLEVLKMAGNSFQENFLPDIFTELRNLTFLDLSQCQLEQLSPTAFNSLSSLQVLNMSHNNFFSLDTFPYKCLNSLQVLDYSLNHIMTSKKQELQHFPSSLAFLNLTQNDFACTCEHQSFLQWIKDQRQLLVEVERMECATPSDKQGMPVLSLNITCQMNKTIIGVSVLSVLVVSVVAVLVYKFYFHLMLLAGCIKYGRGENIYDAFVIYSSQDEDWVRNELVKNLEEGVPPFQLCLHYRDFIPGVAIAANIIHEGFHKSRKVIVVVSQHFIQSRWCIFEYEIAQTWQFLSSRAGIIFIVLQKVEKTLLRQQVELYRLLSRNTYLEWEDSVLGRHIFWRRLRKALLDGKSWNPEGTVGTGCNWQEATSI

Chain of HMGB1 (P09429 whole entry): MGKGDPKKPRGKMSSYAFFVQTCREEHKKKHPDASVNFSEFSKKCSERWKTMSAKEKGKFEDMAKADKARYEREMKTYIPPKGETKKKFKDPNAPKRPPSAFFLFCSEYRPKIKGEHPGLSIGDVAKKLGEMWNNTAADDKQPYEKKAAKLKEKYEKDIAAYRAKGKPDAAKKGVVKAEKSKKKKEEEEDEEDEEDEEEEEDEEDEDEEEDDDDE

Substance: HMGB1 (from UniProt P09429)
- pKd: 6.22
